Assay: soluble on expression in E. coli; label from the status in PepcDB or PDB records

Sequence	soluble on expression in E. coli
METDLLDADECSENEKTLESIEKVFSASHLLVKILEFSSAQHRQKLYIAGSRSRQGDLKGFLDLRLVNQQFNEGVCIAVRKEFKHIQIDIDDNFVRCNYFTIGLHHKPPEPGNRENANVEGEDGNPVEEDEEMPAHEDLPSEDTEDVRFLVKFLRWLAGTFDPIVENFKVFDSWSFKPCSLPPSWADRLTVFISMHPDMEYCNCEQCIRIARNCKESFGPLSFRMVEDALRDQNISYGALTFTDAFLADIAIAYTISIDNRDRFDANRFIRDFGGIRVDELTFAVQTLATYRDERPKPQPLEVLQLILRLWEAKTVEFEIVKFMENDYYLQRCAWERSGAFTLAHFATYSFQHFDEFVHVVPYKFSGTLDRDLRNEIMPIFDLRIDPSEGPLRMGSNLSLLSLASQNNENSTFTWINQGRIAFNMFRANHYMFITSGIVEFRGMLGTANWLKFTIRDMMRSTWGPRGSNVTERGKTVYWINFMEDVGDCIQIVWSEHAKELLETNFPNLVVTMNSSHAFRNCSNRRAATYNDSKRPDVQKKPINTFYCTFYDSVRNNTTHMKLIQIAN	not soluble
MGSDKIHHHHHHMKVIKFGGSSLASSQQLQKVLAIVEADQKRKYVIVSAPGKRFDGDTKVTDLLIQYARQTIHHQDTQAVTAAIIDRYAEIGHGFNVPEAQLTPIFETIRNLPKQSYADNTYLMAAFKAHGERLNAQLVAAVFQQSGLNARYLDPKDAGMVVTDVPDDAQIIKSSYDQLAKWANSEQILVIPGFFAYNRNGQICTFSRGGSDITGAIIARGVHAERYENFTDVDAIYAVNPSLVAKPAAISEMTFTEMRELSYAGFSVFHDEALIPAIEDNITVNVKNTNHPEAPGTLIQSTREPNPHYPVTGIASSSSFCSLYLRKYLLNKEVGLGRKILTILENHHISYEHMPSGIDDLTIIFDEHQLTPELEKTLVAEISTAINPDEIYFTHDYSILMLVGENMRNRVGIMSRAATALANDNIKLIMVNQGASEISIMFGVHDNDADQAVIALYKEFFD	not soluble
MSREANPFKKMPTILMPDELMAKALRRGEKVANEMRQKELPWLLKARFVEEHKVRTIASVVADNLQKVIDKTPPVRKLPKFYQEMVEVLVGIDDFKKSMGAFKWASELVRKLGNEYARKIRKARTPQQAGKLRKEFVGRVKSILEQIHPEMAFVAVAREKLKDLPTFKDLPTVVIAGYPNVGKSTLLKKLTGADVEINSYPFTTKGINVGYIGEIQMVDTPGLLDRPLYERNDIELQAILALNYLANLILFIIDASEFCGYTIEEQINLLKEIKDLFKAPIVVAINKIDLVDEERVKEIEEKLKEVGIEEILKISADKDIGLDELKERLKKIAIKEFLKDKDAENKELECLEHHHHHH	soluble
MSNLRIAYDRLRSMSRTEENPTVQAMQIALHIPKNDPPARSEILQAAAQAVVACCLSEESVTDEWYGNRLQQWYDHRIRKVARRGRNAAWERVTTLPGVSSVSGSAEARAFVPGPVDSVDPLLKKLQISHTDVPFDSPADPTEGPVLYVDRGLGMSVGKTAAQVGHGSMLLAAAQPFEWVERWADQGYRLSVREVDSEVFRKAAEQPGAVHVIDAGFTEVAPSSLTVVALPMLLF	not soluble
MAASKKAVLGPLVGAVDQGTSSTRFLVFNSKTAELLSHHQVEIKQEFPREGWVEQDPKEILHSVYECIEKTCEKLGQLKIDISNIKAIGVSNQRETTVVWDKITGEPLYNAVVWLDLRTQSTVESLSKRITGNNNFVKSKTGLPLSTYFSAVKLRWLLDNVRKVQKAVEEKRALFGTIDSWLIWSLTGGVNGGVHCTDVTNASRTMLFNIHSLEWDKQLCEFFGIPMEILPNVRSSSEIYGLMKISHSVKAGALEGVPISGCLGDQSAALVGQMCFQIGQAKNTYGTGCFLLCNTGHKCVFSDHGLLTTVAYKLGRDKPVYYALEGSVAIAGAVIRWLRDNLGIIKTSEEIEKLAKEVGTSYGCYFVPAFSGLYAPYWEPSARGIICGLTQFTNKCHIAFAALEAVCFQTREILDAMNRDCGIPLSHLQVDGGMTSNKILMQLQADILYIPVVKPSMPETTALGAAMAAGAAEGVGVWSLEPEDLSAVTMERFEPQINAEESEIRYSTWKKAVMKSMGWVTTQSPESGIP	not soluble
MALLPFFDLTNFESDASEELGWLKYVGRVQTRVFPQHFKDNLEKVRKISETIDVIVDTTAELGPEACVNLLNAGALAILVNEEMLNELADISPNRLVLKTDTTDIGKIEKLSQVAGSIQWIGSAENYPPDFFERASKIIHKAVMPEGGGRTLYLEFPEQPSMEVLKSFSVHSVVPVLSSSFLTVKPAEEPKKLSLADLILISANTDREDGLFSTLVVNELGIALGLVYSSKESVAESLKTGTGVYQSRKRGLWYKGASSGAVQHLIHIDVDCDEDCLRFVVYQTGKGFCHLDTLHCFGQASGLCQLEKTLIDRKNNAPEGSYTARLFSDPKLLRAKIMEEAEELCDATTKENVIWEMADLMYFAITRCVGSGVSLNDISRHLDLKHRKVTRRKGDAKVAWQEKLKDKGGVANTSYTA	soluble
MGSDKIHHHHHHMSRTLHAQTHAWLKVFAISARHLSFTRAAEELHVTTGAVSQQIKQLETRLGFKLFRRLPRRLELTDEGQRLAAVVDQAYDAVGQEVRRLRTGVMSGVLRLRCVPSFLAKWLMPRLTRLQARFPDIELHVASEDSNLSLREGEFELAIDLNDGRYAGFQITTLMDEEIFAVCSPQLLRRRPPLVRPDDLGYYPLLHDVTAWRGSHDYAEWEHYLHALGAASVNVQRGYTFNRNHLTVEAAIAGMGVAIARRTLITNELDTGALIAPFAGTVATGKSYGLVYHPGALDDRRVRAVHDWIVEEAARSTAH	not soluble
MSQVTEQSVRFQTALASIKLIQASAVLDLTEDDFDFLTSNKVWIATDRSRARRCVEACVYGTLDFVGYPRFPAPVEFIAAVIAYYVHPVNIQTACLIMEGAEFTENIINGVERPVKAAELFAFTLRVRAGNTDVLTDAEENVRQKLRAEGVM	soluble
MEVDGASDDEQEQIIRKLVKKPEFLSDEEDDSVEDQVVWECDVVVCNSTPNTEMFSVSYPSSKRDAWDAKRFPIARYKKNVRLLEMRFMTDTQLGSYDKKKAELMYMDGDVPKKGHGIDALRANDEIYEGRAFIHDHPIVNAIGFFKNGEFFIHPLTGAFEMHRSIQGLNKKKKSDGKSGKSDEDSSGEEEDVKPSSAAVRVKFSRPETERQKKRREASALHREKKIASDMWIPMKVHLKDGDPVAEKIDGISQNGLLLDDPEASRMSIRALVNRAIICGVKEELVIESGKEHMLSKQRIDDLPDPNLQLKAHMVKSHVMKTSEMRRLIDPSAMSTDKMIAKLKECASLVQGVWVLDSNLMFKNLAPAHSNTAGKTDLYRAELWRNARDLALCLIDGGHRVTRLTLMTCFKLSERDSDEILSTFGVKCEATRSWRLRVERDAQFLEDPAMKKHVVEQKAKWVQKFNELEKSLQESPAKSPKKK	not soluble
MGSDKIHHHHHHMDWGIYMKQLPFKAVAVDVDGTFENDKKEYDHEMFGEILYRLHKHGAHFIIASGRPAGRLSDDFGDFIDSVDFVADNGAVLVRDGKIIRTTCFSKKGILHLIDYMHQRYPGSVTTLLISGVKHSYFLKSTPPEFKRSHHYFYPNSIEIDDFSQIPADDQYTKITVDYPSKVRHELEYGFNSRSMEKIHVTTSGWNYMDIIPQGVNKATGLKEFLAYLDVPRSELIAFGDGENDIEMLKLAGLSYAMENGQNSVKKIANFIAPSNNDNGVFKVLNHYLNEVNK	not soluble
MVVLNTPGKYQYDLRNHLLVNLFPIALDAEITTSNVNKHQLHRSNIPAALSGNSGITDYVPFSAERNAAMVIWRTAIDSRPAVCNDEEGTPGTL	not soluble
MGSDKIHHHHHHMTPRELTCDETLAEMARVLTVEAAALTQMASEVGDPQLKAVEILEAMEGRVIVSGVGKSGHIGNKIAATLASTGTPAQFVHATEASHGDLGMVTPRDVCLVISNSGETSELADIVTYSRRFAIPLIAITRKADSTLATQADVVLLLPDAPEACGIGMAPTTSTTATLAMGDALAVALMKRRGFEREDFKVFHPGGKLGAQLMLVDGLMHTGEALPLVAPETPMTEALLIMTAKGFGLAGLVEGGRLTGIITDGDLRRNMDGLMARSAGEVATRGPKVIRRGSLASEALHDMNSRKISALFVLDNEDRVAGLLHIHDCLRAGLA	not soluble
MNEVLELKEELLQIKNNNYAVPEDVDAYPYAQWMLDYIGSPDAELRDDLIYSTLHTWITNDVFRQKELRGLMLQAISPDYLFYKIGEKGTDSVFKRAFSVLIPPLILSVHEREPLLSEEQLYSVAEQVLEYVYLEEDVRGYVEGKGWAHSTAHAADALDALARTIQNREFSYAILAAVRQKVRLSDYVYVHFEDERLVKPIMSLHNQKLLTEEEWSNWLHSIATVEDIRHPQHAILVQNIRSFLRSLYFRVLETEGSTAFTDDILETLKGLRRY	not soluble
MGSDKIHHHHHHMSEYLEIPELNKAFPFRSFVNEGEVLVYPHWHKEIEIIYALKGSLNLGVNDMPIQLNEGEIQIINGGDVHYFLASPNSERIVIQFDLSLFQEEMQMDGQNGTLREMLTEMAHLSREWPEETTAKVQSLIRNIHLESSNDSPGKHYILKADLLAIIGLIYREIPQKKTQPDSVISEKAVLKSKETLQKLDQIFSYVEKHYQEPVSLQEVADYTGFSTYYFTKFFKRNTGMTFVTFLNDYRLNKAKWMLLNEAFPVTEVAELAGFSSVKTFHHAFKRAMGVAPLKYRKTIYGNN	not soluble
MDYKVSVLIVCYNQEKYIKKALESVLSQKVNFNYEIVVCDDCSSDRTFNILQEYKSKLGSKLNLIRNYKNLGITLNYKNGFKNCKGEYIAVLEGDDYWIQKSKLKRQVSFLESNRDCSLVFNKIVLDYGDEKINNLIYPFNDIRKKFSARELVRSNFIQNFSCCMYRKSSIRKLRESIYDMVVYDWMFNMAVAQFGLIGYIPNYMTSHRILKSGLWSGKSKMENLQMISKCIDQYDSFFKYKYRKEFSQNKQEVLQALRRLVMVNENGLEHHHHHH	soluble
MRKGNTDLLLFFNGWGMDRRVADWLVSAWPDSAGRDIAVLYDYRNLSIPAWLGEVMAEARAVDLVAWSLGVWAAVNSELEKIDRAVAINGTATPLDAERGIPPEIFAGTLKSWNDANRKRFERRMTGGVPPKIVDATRSDRTSADQQAELLSLGEAVARFPAESTASWKFSKALIGGRDLIFSAENQRRAWSEAGVRVAEIAAMPHFPFTHIAGWGELFT	not soluble
MGSDKIHHHHHHMLILRARWWTNMCLICQRIDLIKKEENPYFVKELETGYLVVGDHQYFEGYSLFLAKEHVSELHHLKKETRLRFLEEMSLVQEAVAKAFAAEKMNIELLGNGDAHLHWHLFPRRTGDMNGHGLKGRGPVWWVPFEEMTAETCQAKPDEIKRLVKRLSSEVDKLLEIKE	not soluble
MSVESSNQTTSLSSYLLKCAFSFGTAPPSLSPPSSTGSYEEADFSRFVQQNETGHKLTSYQSLANRDPCTIPDELHQEMKSLKKKEEAFKTSLCGFHRRGQKCAYGEKCKFAHSVHELRFPQTKRNHRNYKTVLCNNFSTTGHCKYGIRCQFIHRSMDSTSSNQSNETENITIDLNVQSDVFRAFALDSTSSLPNWHCSALLH	not soluble
MTKLQGLQGLKHIKAVVFDMDGTLCLPQPWMFPAMRNAIGLEDKSIDILHFIDTLPTEKEKKEAHDRIELVEAKAMKEMQPQPGLVDIMRYLTKNGISKNICTRNVGAPVETFVKRFIPSELSRFDYIVTREFRPTKPQPDPLLHIASKLNIRPLEMIMVGDSFDDMKSGRSAGCFTVLLKNHVNGHLLLEHKELVDVSVEDLSEIIELIQNMNKESF	not soluble
IRQTYEQSCGASSLATLLNILDDQKKFDELELLKIMSGQELYTDMVSFADLNDAVKKLGFQSNSYQINRENLDKLVNIPMLVKIEDDPRFPHFVIIINHKGNYLQVLDPSHGEYISSKSQFFSIWDRYNKGGYALIVAP	not soluble
MQDTTLLQMITDDMVSARQLLELLQAESLILHGRDMSEMEQVLAQKQALVILLDQHGRKRSQVLAGMGLPANRSGLQQLASQSEVGEQLLTSSDELNALINECQTLNDQNGSLIQLQQISTAHQLRILNGGETPTLYDARGSTALRAKPRPLSQA	not soluble

— the DeepSol protein solubility set
